Consider 4 molecules from paper PMC10279719 (Nature Communications, 2023).

In experiment [1] the target is T1, CrkII^NSH3 (Homo sapiens, UniProt P46108).
T1 construct: CrkII^NSH3; UniProt P46108-1, residues 134–191; 8-His tag with TEV protease cleavage site (N); made in house; host or cells: E. coli C41 (DE3)
As to the kind of experiment: SPR, CrkII NSH3 binding to immobilised PEAK proteins. As to conditions: read-out: CrkII NSH3 SPR KD; interactor as analyte over biotinylated PEAK protein captured with biotin CAPture kit; Biacore 8K+, HBS-TP, 20 °C; steady-state fit; mean ± SD (N = 2); read-out: CrkII-SH2 SPR KD. The method, then:
(§1) SPR binding studies of PEAK PRM peptides to CrkII^NSH3 were performed using a Biacore S200 Instrument (Cytiva). Purified CrkII^NSH3 was diluted to 5 µg ml^−1 in 10 mM sodium acetate pH 4.0 and amine coupled at 25 °C to a Series S CM5 sensor chip, in HBS-N running buffer (20 mM HEPES pH 7.4, 150 mM NaCl) to a final immobilization level of 1100–1400 response units (RU), followed by surface deactivation using 1 M ethanolamine. A blank activation/deactivation was used for the reference surface. Peptide binding studies were performed at 20 °C in HBS-TP running buffer (20 mM HEPES pH 7.4, 150 mM NaCl, 1 mM TCEP, 0.005% (v/v) Tween-P20). […] Peptide stocks were further diluted to in running buffer to 10 or 20 µM and prepared as a 11-point concentration series (2-fold serial dilution, […] for PEAK PRM peptides, or 20 µM–20 nM for PEAK tandem motif peptides). Samples were injected in a multi-cycle run (flow rate 30 µl min^−1, contact time of 60 s, dissociation 120 s) without regeneration. Sensorgrams were double referenced, and steady-state binding data fitted using a 1:1 binding model using Biacore S200 Evaluation Software (Cytiva, v. 1.1).
(§2) SPR binding studies of PEAK proteins to full length CrkII/Grb2 and sub-domains were performed using a Biacore 8K+ Instrument (Cytiva) and analyzed using Biacore Insight Evaluation Software (v. 3.0.12.15655). […] Binding studies and steady-state data analysis were performed as described for CrkII^NSH3 with the inclusion of an additional surface regeneration step (60 s injection of 1 M NaCl) between cycles.
For orientation: SPR reads the build-up and loss of mass on a sensor chip optically.

Experiment [2] addresses T2, CrkII^SH2 (Homo sapiens, UniProt P46108).
T2 construct: CrkII^SH2; UniProt P46108-1, residues 6–120; 8-His tag with TEV protease cleavage site (N); made in house; host or cells: E. coli C41 (DE3)
As to the kind of experiment: SPR, CrkII SH2 binding to immobilised PEAK proteins. As to conditions: interactor as analyte over biotinylated PEAK protein (biotin CAPture); Biacore 8K+, HBS-TP with 500 mM NaCl, 20 °C; steady-state fit; mean ± S.E.M. (N = 3). On the procedure:
as §1
(§3) SPR binding studies of PEAK proteins to full length CrkII/Grb2 and sub-domains were performed using a Biacore 8K+ Instrument (Cytiva) and analyzed using Biacore Insight Evaluation Software (v. 3.0.12.15655). […]

Experiment [3] addresses T3, CrkII^FL monomer (Homo sapiens, UniProt P46108).
T3 construct: full length CrkII (CrkII^FL; UniProt P46108-1, residues 1–330); 8-His tag with TEV protease cleavage site (N); made in house; host or cells: E. coli C41 (DE3)
As to the kind of experiment: SPR, CrkII FL monomer binding to immobilised PEAK proteins. Conditions: interactor as analyte over biotinylated PEAK protein (biotin CAPture); Biacore 8K+, HBS-TP with 500 mM NaCl, 20 °C; steady-state fit; mean ± SD (N = 2). The method, then:
as §1, §2

The target of experiment [4] is T4, CrkII^FL dimer (Homo sapiens, UniProt P46108).
T4 construct: full length CrkII (CrkII^FL; UniProt P46108-1, residues 1–330); 8-His tag with TEV protease cleavage site (N); made in house; host or cells: E. coli C41 (DE3)
As to the kind of experiment: SPR, CrkII FL dimer binding to immobilised PEAK proteins. As to conditions: interactor as analyte over biotinylated PEAK protein (biotin CAPture); Biacore 8K+, HBS-TP with 500 mM NaCl, 20 °C; steady-state fit; mean ± SD (N = 2). The method, then: as §1, §2

Experiment [5] addresses Grb2^SH2 (Homo sapiens, UniProt P62993). As to the kind of experiment: SPR, Grb2 SH2 binding to immobilised PEAK proteins. As to conditions: interactor as analyte over biotinylated PEAK protein (biotin CAPture); Biacore 8K+, HBS-TP with 500 mM NaCl, 20 °C; steady-state fit; mean ± S.E.M. (N = 3). On the procedure:
as §1, §3

The target in experiment [6] is T5, Grb2^FL (Homo sapiens, UniProt P62993).
T5 construct: Grb2^FL; UniProt P62993-1, residues 1–217; 8-His tag with TEV protease cleavage site (N); made in house; host or cells: E. coli C41 (DE3)
As to the kind of experiment: SPR, Grb2 FL binding to immobilised PEAK proteins. As to conditions: interactor as analyte over biotinylated PEAK protein (biotin CAPture); Biacore 8K+, HBS-TP with 500 mM NaCl, 20 °C; steady-state fit; mean ± SD (N = 2) or S.E.M. (N = 3). The method, then:
as §1, §3

For experiment [7], the target named is 14-3-3ɣ. As to the kind of experiment: SPR, 14-3-3ɣ binding to immobilised PEAK proteins. Set-up: species or system human. Conditions: 14-3-3ɣ analyte 0.46–1000 nM, multi-cycle, over immobilised biotinylated PEAK protein; Biacore 8K+, 20 °C; KD only an estimate (bivalent analyte model); N = 3. On the procedure:
PEAK proteins and adapters proteins (full length or individual domains) were biotinylated using EZ-Link™ NHS-PEG4-Biotin (Thermo Fisher) at a 1:1 molar ratio (100 µM) for 1 h at room temperature, then excess biotin was removed by buffer exchange using a Zeba™ Spin Desalting Column (Thermo Fisher) into HBS-T buffer (20 mM HEPES pH 7.4, 150 mM NaCl, 1 mM TCEP).
SPR binding studies of PEAK proteins to full length CrkII/Grb2 and sub-domains were performed using a Biacore 8K+ Instrument (Cytiva) and analyzed using Biacore Insight Evaluation Software (v. 3.0.12.15655). […] Biotinylated PEAK proteins (with or without Src phosphorylation; 500 nM in HBS-TP) were immobilized using a biotin CAPture kit (Cytiva) in HBS-TP running buffer at 20 °C. Binding studies and steady-state data analysis were performed as described for CrkII^NSH3 with the inclusion of an additional surface regeneration step (60 s injection of 1 M NaCl) between cycles. For Grb2^FL, Grb2^SH2, CrkII^SH2, CrkII^FL monomer and CrkII^FL dimer, to reduce nonspecific interactions the HBS-TP running buffer was supplemented with additional NaCl to a final concentration of 500 mM.
Binding studies for 14-3-3ɣ were undertaken in the same way in multi cycle mode (8 point, 3-fold serial dilution series, 0.46–1000 nM, 60 s contact time, 300 s dissociation).

T1 sequence (P46108 134-191): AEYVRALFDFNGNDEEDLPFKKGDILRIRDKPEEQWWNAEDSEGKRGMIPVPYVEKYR
T3 sequence (P46108 whole entry, the tested form may be a part): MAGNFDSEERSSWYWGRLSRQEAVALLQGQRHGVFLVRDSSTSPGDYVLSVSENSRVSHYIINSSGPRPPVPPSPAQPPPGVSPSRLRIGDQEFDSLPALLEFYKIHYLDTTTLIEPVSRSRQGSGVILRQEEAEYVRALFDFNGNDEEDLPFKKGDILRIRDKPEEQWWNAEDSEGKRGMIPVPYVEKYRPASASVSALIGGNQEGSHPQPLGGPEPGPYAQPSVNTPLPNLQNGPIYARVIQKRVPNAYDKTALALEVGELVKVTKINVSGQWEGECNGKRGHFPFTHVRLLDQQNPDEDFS
T4 sequence (P46108 whole entry, the tested form may be a part): as above
T2 sequence (P46108 6-120): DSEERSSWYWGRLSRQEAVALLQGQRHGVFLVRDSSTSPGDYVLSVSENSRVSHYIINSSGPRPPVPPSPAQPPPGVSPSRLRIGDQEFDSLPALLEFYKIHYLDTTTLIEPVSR
T5 sequence (P62993 whole entry, the tested form may be a part): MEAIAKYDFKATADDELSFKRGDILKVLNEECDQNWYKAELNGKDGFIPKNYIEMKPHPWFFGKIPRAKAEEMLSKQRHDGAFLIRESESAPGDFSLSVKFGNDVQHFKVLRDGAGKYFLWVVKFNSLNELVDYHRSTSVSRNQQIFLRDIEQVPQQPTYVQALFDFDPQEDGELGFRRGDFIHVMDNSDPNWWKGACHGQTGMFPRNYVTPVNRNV
Sequence of Grb2^SH2 (P62993 60-152 limits assumed): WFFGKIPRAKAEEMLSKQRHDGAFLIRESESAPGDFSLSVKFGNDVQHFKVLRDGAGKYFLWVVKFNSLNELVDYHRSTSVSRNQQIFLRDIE

B1: PEAK1-IDR1: recombinant human PEAK1 residues 1082–1746, insect cell expressed (protein)
chain: LPELEREDGKEDISDPMDPNPCSATYSNLGQSRAAMIPPKQPRQPKGAVDDAIAFGGKTDQEAPNASQPTPPPLPKKMIIRANTEPISKDLQKSMESSLCVMANPTYDIDPNWDASSAGSSISYELKGLDIESYDSLERPLRKERPVPSAANSISSLTTLSIKDRFSNSMESLSSRRGPSCRQGRGIQKPQRQALYRGLENREEVVGKIRSLHTDALKKLAVKCEDLFMAGQKDQLRFGVDSWSDFRLTSDKPCCEAGDAVYYTASYAKDPLNNYAVKICKSKAKESQQYYHSLAVRQSLAVHFNIQQDCGHFLAEVPNRLLPWEDPDDPEKDEDDMEETEEDAKGETDGKNPKPCSEAASSQKENQGVMSKKQRSHVVVITREVPCLTVADFVRDSLAQHGKSPDLYERQVCLLLLQLCSGLEHLKPYHVTHCDLRLENLLLVHYQPGGTAQGFGPAEPSPTSSYPTRLIVSNFSQAKQKSHLVDPEILRDQSRLAPEIITATQYKKCDEFQTGILIYEMLHLPNPFDENPELKEREYTRADLPRIPFRSPYSRGLQQLASCLLNPNPSERILISDAKGILQCLLWGPREDLFQTFTACPSLVQRNTLLQNWLDIKRTLLMIKFAEKSLDREGGISLEDWLCAQYLAFATTDSLSCIVKILQHR
modifications: left off: His tag, N-terminal, state not stated
notes: recombinant human PEAK1 residues 1082–1746, insect cell expressed
With B1, the Kd was 3.7 µM in experiment [1], 9.2 µM in experiment [3], 2.03 µM in experiment [4] and more than 50 µM in experiment [6]. For the same molecule, the “SPR KD, CrkII-SH2” value in experiment [2] is on record as “No binding”. Further, the “SPR KD, Grb2 SH2” value in experiment [5] is on record as “No binding”. Also, the “SPR KD, 14-3-3ɣ” value in experiment [7] is “No binding”.

B2: PEAK1-IDR1 (+ Src phosphorylation): PEAK1 residues 1082–1746 phosphorylated with recombinant Src kinase (protein)
chain: B1 chain
modifications: phosphotyrosine at Y1107 (by Src in vitro, shown by MS/MS); other Src sites not stated; biotin (EZ-Link NHS-PEG4-Biotin, 1:1 molar ratio); left off: His-tag, N-terminal, state not stated
notes: PEAK1 residues 1082–1746 phosphorylated with recombinant Src kinase
Turning to B2, the Kd in experiment [1] stood at 4.11 µM; in experiment [3], 1.5 µM; in experiment [4] it was 1.49 µM. In addition, in experiment [7], the “SPR KD, 14-3-3ɣ” value is on record as “No binding”.

B3: PEAK2-IDR1: recombinant human PEAK2 residues 802–1406, insect cell expressed (protein)
chain: EDVSPSGPQQPPPLPQKKIVSRAASSPDGFFWTQGSPKPGTASPKLNLSHSETNVHDESHFSYSLSPGNRHHPVFSSSDPLEKAFKGSGHWLPAAGLAGNRGGCGSPGLQCKGAPSASSSQLSVSSQASTGSTQLQLHGLLSNISSKEGTYAKLGGLYTQSLARLVAKCEDLFMGGQKKELHFNENNWSLFKLTCNKPCCDSGDAIYYCATCSEDPGSTYAVKICKAPEPKTVSYCSPSVPVHFNIQQDCGHFVASVPSSMLSSPDAPKDPVPALPTHPPAQEQDCVVVITREVPHQTASDFVRDSAASHQAEPEAYERRVCFLLLQLCNGLEHLKEHGIIHRDLCLENLLLVHCTLQAGPGPAPAPAPAPAPAAAAPPCSSAAPPAGGTLSPAAGPASPEGPREKQLPRLIISNFLKAKQKPGGTPNLQQKKSQARLAPEIVSASQYRKFDEFQTGILIYELLHQPNPFEVRAQLRERDYRQEDLPPLPALSLYSPGLQQLAHLLLEADPIKRIRIGEAKRVLQCLLWGPRRELVQQPGTSEEALCGTLHNWIDMKRALMMMKFAEKAVDRRRGVELEDWLCCQYLASAEPGALLQSLKLLQLL
modifications: phosphorylated at the tandem site 14-3-3 motif (RAASSP) by LC MS/MS; left off: His tag, N-terminal, state not stated
notes: recombinant human PEAK2 residues 802–1406, insect cell expressed
Turning to B3, the Kd is 4.79 µM in experiment [1], 13.7 µM in experiment [3] and 4.22 µM in experiment [4]. Also, in experiment [2], the “SPR KD, CrkII-SH2” value is “No binding”. Besides, the “SPR KD, 14-3-3ɣ” value in experiment [7] is “No binding”.

B4: PEAK2-IDR1 (+ Src phosphorylation): PEAK2 residues 802–1406 phosphorylated with recombinant Src kinase (protein)
chain: B3 chain
modifications: phosphorylated with Src kinase, sites not stated; phosphorylation of the tandem site 14-3-3 motif (RAASSP) found by proteomic analysis; biotin (EZ-Link NHS-PEG4-Biotin, 1:1 molar ratio); left off: His
notes: PEAK2 residues 802–1406 phosphorylated with recombinant Src kinase
As for B4, the figures for the dissociation constant (Kd) in experiment [1], in experiment [3] and in experiment [4] were 5.2 µM, 2.12 µM and 1.38 µM, respectively. Further, the “SPR KD, 14-3-3ɣ” value in experiment [7] was “No binding”.

The term Kd denotes the free concentration of one partner at which half of the binding sites on the other are occupied at equilibrium, for simple one-to-one binding.
